Experiment [1] concerns the target T1, human CLDN4 (human, UniProt O14493 1-209).
T1 construct: whole, on cells
T1 sequence (looked up): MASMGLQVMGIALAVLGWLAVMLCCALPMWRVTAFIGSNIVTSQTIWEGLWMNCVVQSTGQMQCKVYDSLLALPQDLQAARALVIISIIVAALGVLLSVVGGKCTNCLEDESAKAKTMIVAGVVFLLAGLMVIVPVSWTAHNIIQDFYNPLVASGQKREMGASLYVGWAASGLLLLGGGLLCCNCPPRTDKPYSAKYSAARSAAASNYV
The experiment is described as follows: flow cytometry on transiently transfected 293T cells. Here is the method: (§1) Binding activity of the mouse anti-CLDN6 antibodies produced in Example 6 to human CLDN6 and its family molecules, CLDN3, CLDN4, and CLDN9, was evaluated by using a flow cytometry method. Human CLDN3/pCMV6-Entry, human CLDN4/pCMV6-Entry, human CLDN6/pCMV-Entry, human CLDN9/pCMV6-Entry, or pCMV6-Entry purchased from OriGene Technologies, Inc. was transiently transferred into 293T cells (Thermo Fisher Scientific, HCL4517) by using Lipofectamine 2000 (Thermo Fisher Scientific), and the cells were cultured under conditions of 37° C. and 5% CO₂ overnight, and then a cell suspension was prepared. The transfected 293T cell suspension was centrifuged to remove the supernatant, and a mouse anti-CLDN6 antibody (clone number: B1 or C7) or a mouse IgG1 control antibody (R&D Systems, Inc.) was then added and suspended to a final concentration of 30 μg/mL, 10 μg/mL, 3.3 μg/mL, or 1.1 μg/mL, and the resultant was left to stand at 4° C. for 1 hour. The cells were washed twice with Dulbecco's phosphate buffered saline (Sigma-Aldrich Co. LLC) containing 5% fetal bovine serum (Hyclone) (hereinafter, referred to as 5% FBS-containing PBS), and FLUORESCEIN-CONJUGATED GOAT IGG FRACTION TO MOUSE IGG (WHOLE MOLECULE) (MP Biomedicals, Inc.) 500-fold diluted with 5% FBS-containing PBS was then added thereto, and the cells were suspended and left to stand at 4° C. for 1 hour. After washing twice with 5% FBS-containing PBS, detection was carried out by using a flow cytometer (FC500; Beckman Coulter, Inc.). Data analysis was carried out by using FlowJo (Tree Star, Inc.). To confirm each transfection, the cells were permeabilized with 0.25% Tween 20-containing PBS, and then a mouse anti-FLAG antibody (Sigma-Aldrich Co. LLC) was used. […] In each graph in FIG. 11, the ordinate represents FITC fluorescence intensity indicating the amount of the binding antibody and the abscissa represents antibody concentrations.
(§2) The binding activity of the humanized anti-CLDN6 antibody produced in Example 10 to human CLDN6 and its family molecules, CLDN3, CLDN4, and CLDN9, was evaluated by using a flow cytometry method.
On the technique in general: A flow cytometer gives signals particle by particle.

In experiment [2] the target is T2, human CLDN3 (human, UniProt O15551 1-220).
T2 construct: whole, on cells
T2 sequence (looked up): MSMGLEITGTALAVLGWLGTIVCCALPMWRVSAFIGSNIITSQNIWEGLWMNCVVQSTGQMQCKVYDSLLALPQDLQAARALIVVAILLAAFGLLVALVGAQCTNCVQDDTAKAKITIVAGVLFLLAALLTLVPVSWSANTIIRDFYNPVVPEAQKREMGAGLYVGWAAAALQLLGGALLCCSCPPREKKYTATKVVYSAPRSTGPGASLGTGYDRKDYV
Described as above. Here is the method: as §1, §2

The target of experiment [3] is T3, human CLDN9 (human, UniProt O95484 1-217).
T3 construct: Expressed on 293T cells from human CLDN9/pCMV6-Entry (OriGene); Transfection was confirmed with an anti-FLAG antibody
T3 sequence: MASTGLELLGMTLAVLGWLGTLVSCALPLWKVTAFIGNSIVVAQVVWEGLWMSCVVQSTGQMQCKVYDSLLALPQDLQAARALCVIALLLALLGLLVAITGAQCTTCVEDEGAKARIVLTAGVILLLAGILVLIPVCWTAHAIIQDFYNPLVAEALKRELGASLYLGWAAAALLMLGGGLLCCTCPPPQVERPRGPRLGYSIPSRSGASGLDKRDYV
The experiment is described as follows: flow cytometry on transiently transfected 293T cells, 1.1-30 µg/mL. On the procedure: Binding activity of the mouse anti-CLDN6 antibodies produced in Example 6 to human CLDN6 and its family molecules, CLDN3, CLDN4, and CLDN9, was evaluated by using a flow cytometry method. Human CLDN3/pCMV6-Entry, human CLDN4/pCMV6-Entry, human CLDN6/pCMV-Entry, human CLDN9/pCMV6-Entry, or pCMV6-Entry purchased from OriGene Technologies, Inc. was transiently transferred into 293T cells (Thermo Fisher Scientific, HCL4517) by using Lipofectamine 2000 (Thermo Fisher Scientific), and the cells were cultured under conditions of 37° C. and 5% CO₂ overnight, and then a cell suspension was prepared. The transfected 293T cell suspension was centrifuged to remove the supernatant, and a mouse anti-CLDN6 antibody (clone number: B1 or C7) or a mouse IgG1 control antibody (R&D Systems, Inc.) was then added and suspended to a final concentration of 30 μg/mL, 10 μg/mL, 3.3 μg/mL, or 1.1 μg/mL, and the resultant was left to stand at 4° C. for 1 hour. […] In each graph in FIG. 11, the ordinate represents FITC fluorescence intensity indicating the amount of the binding antibody and the abscissa represents antibody concentrations.

Experiment [4] deals with T4, human CLDN6 (human, UniProt P56747 1-220).
T4 construct: Four-transmembrane protein; It was expressed on 293T cells from human CLDN6/pCMV-Entry (OriGene) and on CHO-K1 cells by cDNA transfection; it was endogenous in the NTERA-2 lysate used for immunoprecipitation; also called claudin-6; human claudin-6
T4 sequence: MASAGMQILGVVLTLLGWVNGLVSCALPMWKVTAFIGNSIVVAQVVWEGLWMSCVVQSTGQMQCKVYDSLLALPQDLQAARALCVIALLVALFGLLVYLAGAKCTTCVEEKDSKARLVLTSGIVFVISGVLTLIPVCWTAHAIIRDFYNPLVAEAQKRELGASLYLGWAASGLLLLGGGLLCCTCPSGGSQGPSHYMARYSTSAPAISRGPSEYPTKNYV
The experiment is described as follows: FACS on CHO-K1 cells transfected with human claudin-6 cDNA.

B1: mouse anti-CLDN6 antibody C7 (antibody, V domains shown)
VH: EVQLQQSGPELVKPGASVKISCKTSGYTFTEYTMHWVQQSHGKSLEWIGGVNPNSGDTSYNQKFKGKATLTVDKSSSTAYMELRSLTSEDSAVYYCARPGGYDVGYYAMDYWGQGTSVTVSS
VL: DIQMTQTASSLSASLGDRVTISCRASQDINNYLNWYQQKPDGTVKLLIYSTSRLHSGVPSRFSGSGSGTHYSLTITHLEQEDIATYFCQQGYPLPWTFGGGTKLEIK
notes: Mouse monoclonal antibody purified from hybridoma 218C7 culture supernatant; also called C7 antibody; 218C7
On to B1, for which the binding result was “no binding (tested: 30 µg/mL (highest concentration tested))” in experiment [1], “no binding (tested: 30 µg/mL (highest concentration tested))” in experiment [2], “binds” in experiment [3] and “binds” in experiment [4].

For the origin of these results see patent publication US20220168438A1 (Daiichi Sankyo, published 2022).
